{"source": "patent US20210380675A1", "about": "(Kyowa Kirin, published 2021)", "key": {"human IL-36γ, truncated [1]": {"target": "T1, human IL-36γ, truncated (human, UniProt Q9NZH8 18-169)", "T1 sequence": "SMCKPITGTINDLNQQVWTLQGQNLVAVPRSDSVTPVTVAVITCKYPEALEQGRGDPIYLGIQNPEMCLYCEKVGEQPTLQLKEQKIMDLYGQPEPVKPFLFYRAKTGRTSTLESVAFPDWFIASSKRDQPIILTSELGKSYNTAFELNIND", "test": "cell-based or functional assay"}, "[2]": {"target": "T2, human IL-36α (R&D Systems cat#6995-IL-010/CF) (human, UniProt Q9UHA7 6-158)", "T2 sequence (looked up)": "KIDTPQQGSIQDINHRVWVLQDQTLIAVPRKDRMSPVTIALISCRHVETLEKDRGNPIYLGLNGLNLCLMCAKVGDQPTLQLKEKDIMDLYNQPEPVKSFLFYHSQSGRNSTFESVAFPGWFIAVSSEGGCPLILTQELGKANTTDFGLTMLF", "test": "cell-based or functional assay"}, "[3]": {"target": "T3, human IL-36α(R12), truncated (human, UniProt Q9UHA7 6-158)", "T3 construct": "Untagged after removal of the His-SUMO tag; also called hIL-36alpha", "T3 chain": "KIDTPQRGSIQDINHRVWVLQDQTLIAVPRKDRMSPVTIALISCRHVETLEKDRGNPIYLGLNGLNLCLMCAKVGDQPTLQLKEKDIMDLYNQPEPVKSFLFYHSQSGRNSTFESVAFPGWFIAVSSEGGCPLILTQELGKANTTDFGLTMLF", "test": "SPR, Biacore, 1:1 Langmuir fit", "protocol": "(§1) The humanized antibodies obtained in Example 6 were tested for their binding to recombinant human or cynomolgus macaque IL36a and IL-36γ in Biacore assays. The association time was set to 60 seconds, and the final dissociation time was set to 600 seconds. Equilibrium dissociation constant KD (kd/ka) of exemplary antibodies was determined using a 1:1 Langmuir fit model (see Tables 17-18 below)."}, "[4]": {"target": "T4, cynomolgus IL-36γ, truncated (cynomolgus macaque (Macaca fascicularis), UniProt Q9NZH8 18-167 (human entry), limits assumed)", "T4 construct": "Untagged after removal of the His-SUMO tag; also called cynomolgus IL-36 gamma; cyIL-36gamma", "T4 chain": "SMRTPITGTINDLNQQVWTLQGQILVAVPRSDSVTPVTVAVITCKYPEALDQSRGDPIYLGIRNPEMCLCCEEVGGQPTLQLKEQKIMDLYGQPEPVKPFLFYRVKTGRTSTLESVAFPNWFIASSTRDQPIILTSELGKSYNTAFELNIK", "test": "SPR, Biacore, 1:1 Langmuir fit", "protocol": "as §1"}, "human IL-36γ, truncated [5]": {"target": "T1, human IL-36γ, truncated", "test": "SPR, Biacore, 1:1 Langmuir fit", "protocol": "as §1"}, "[6]": {"target": "T5, cynomolgus IL-36α, truncated (cynomolgus macaque (Macaca fascicularis), UniProt Q9UHA7 14-158 (human entry), limits assumed)", "T5 construct": "Untagged after removal of the His-SUMO tag; also called cynomolgus IL-36 alpha; cyIL-36alpha", "T5 chain": "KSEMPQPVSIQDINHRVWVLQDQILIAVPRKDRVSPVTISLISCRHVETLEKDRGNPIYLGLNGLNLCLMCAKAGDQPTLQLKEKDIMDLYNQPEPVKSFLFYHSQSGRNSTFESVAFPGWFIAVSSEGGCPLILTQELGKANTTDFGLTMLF", "test": "SPR, Biacore, 1:1 Langmuir fit", "protocol": "as §1"}, "[7]": {"target": "T3, human IL-36α(R12), truncated", "test": "SPR, Biacore, 1:1 Langmuir fit; heads of c3 and c4 printed swapped", "protocol": "as §1"}, "[8]": {"target": "T4, cynomolgus IL-36γ, truncated", "test": "SPR, Biacore, 1:1 Langmuir fit; heads of c3 and c4 printed swapped", "protocol": "as §1"}, "human IL-36γ, truncated [9]": {"target": "T1, human IL-36γ, truncated", "test": "SPR, Biacore, 1:1 Langmuir fit; heads of c3 and c4 printed swapped", "protocol": "as §1"}, "[10]": {"target": "T5, cynomolgus IL-36α, truncated", "test": "SPR, Biacore, 1:1 Langmuir fit; heads of c3 and c4 printed swapped", "protocol": "as §1"}}, "data": [{"binder": "144L249B LV9 HV10c (antibody, V domains shown, Humanized) VH: QVQLVQSGAEVKKPGASVKVSCKASGFNIKDTYIYWVRQAPGQGLEWIGRIDPAIGTTRYDPKFQGKATLTADTSTNTAYLELSSLRSEDTAVYYCARYDYSGSSFYFDYWGQGTLVTVSS VL: QAVVTQEPSLTVSPGGTVTLTCRSSTGAVTTSNYANWVQEKPGQLFTGLIGGTNDRAPGVPARFSGSLLGGKAALTLSGAQPEDEADYFCALWYSNHLVFGGGTKLTVL", "values": [{"measurement": "IC50 of IL-8 secretion (AlphaLISA), HaCaT, 10 nM human IL-36γ", "setting": "human IL-36γ, truncated [1]", "value": 11.5, "unit": "nM"}, {"measurement": "IC50 of IL-8 secretion (AlphaLISA), HaCaT, 10 nM human IL-36α", "setting": "[2]", "value": 5.13, "unit": "nM"}, {"measurement": "Kd", "setting": "[3]", "value": 0.992, "unit": "nM"}, {"measurement": "Kd", "setting": "[4]", "value": 0.552, "unit": "nM"}, {"measurement": "Kd", "setting": "human IL-36γ, truncated [5]", "value": 0.625, "unit": "nM"}, {"measurement": "Kd", "setting": "[6]", "value": 0.674, "unit": "nM"}, {"measurement": "koff", "setting": "[7]", "value": 0.000843, "unit": "s⁻¹"}, {"measurement": "kon", "setting": "[7]", "value": 850000, "unit": "M⁻¹ s⁻¹"}, {"measurement": "koff", "setting": "[8]", "value": 0.000603, "unit": "s⁻¹"}, {"measurement": "kon", "setting": "[8]", "value": "1.09e+06", "unit": "M⁻¹ s⁻¹"}, {"measurement": "koff", "setting": "human IL-36γ, truncated [9]", "value": 0.000625, "unit": "s⁻¹"}, {"measurement": "kon", "setting": "human IL-36γ, truncated [9]", "value": 999000, "unit": "M⁻¹ s⁻¹"}, {"measurement": "koff", "setting": "[10]", "value": 0.00103, "unit": "s⁻¹"}, {"measurement": "kon", "setting": "[10]", "value": "1.53e+06", "unit": "M⁻¹ s⁻¹"}]}]}
